Tested on: neurons
Test: Current clamp / dynamic clamp electrical properties of neurons
Assay type: cell-based
Experimental: For electrophysiological experiments, mixed cortical neuronal/glial cultures were prepared from embryonic day 16 (E16) Sprague-Dawley rats (Charles River Laboratories, Wilmington, Mass., USA). Donor rats were euthanized by gradual CO2 exposure. Cortices were dissociated with trypsin, and the resultant cell suspension, adjusted to 670,000 cells per well, was plated on glass coverslips in 6-well plates as described previously (Hartnett et al., J Neurochem 68, 1836-1845, 1997). Non-neuronal cell proliferation was inhibited after two weeks in culture with 1-2 μM cytosine arabinoside, and cultures utilized at three to four weeks in vitro. For neuronal transfection, cells were treated for five hours in serum-free medium with 2 μL LIPOFECTAMINE™ 2000 (Invitrogen, Carlsbad, Calif.), 50 μL Optimem (GIBCO, Grand Island, N.Y.), and 1.5 μg DNA per well. For CHO cell transfections, cells were plated on coverslips in 24-well plates at a density of 5.6×10^4 cells per well for electrophysiological measurements or in 100 mm dishes at a density of 1.7×10^6 cells per dish for biochemical studies. Cells were treated for 3-4 hours in serum-free medium with a total of 1.2 μL LIPOFECTAMINE™ and 0.28 μg DNA per well for electrophysiology, or 55.1 μL LIPOFECTAMINE™ and 7.33 μg DNA per dish for biochemistry. Following transfection, cells were maintained in F12 medium containing fetal bovine serum at 37° C., 5% CO2 for 24 hours prior to experimentation.
Current recordings were performed on eGFP-positive co-transfected neurons or CHO cells using the whole-cell patch clamp configuration technique as described previously (McLaughlin et al., J Neurosci 21, 3303-3311, 2001). The intracellular (electrode) solution contained (in mM): 100 K-gluconate, 11 EGTA, 10 KCl, 1 MgCl2, 1 CaCl2×2H2O, 10 HEPES; pH adjusted to 7.2 with concentrated KOH; 2.2 ATP and 0.33 GTP were added and the osmolarity was adjusted to 280 mOsm with sucrose. The extracellular solution contained (in mM): 115 NaCl, 2.5 KCl, 2.0 MgCl2, 10 HEPES, 10 D-glucose; 0.25 μM tetrodotoxin; pH adjusted to 7.2. Measurements were obtained under whole-cell voltage clamp with an Axopatch-1D amplifier and pClamp software (Molecular Devices, Sunnyvale, Calif.), using 2-3 MΩ recording electrodes. Electrodes were pulled from 1.5 mm borosilicate glass (Warner Instruments, Hamden, Conn.) with a model P-97 mechanical pipette puller (Sutter Instruments, Novato, Calif.). Series resistance was partially compensated (80%) in all cases. Currents were filtered at 2 kHz and digitized at 10 kHz with a Digidata 1440A Digitizer (Molecular Devices). K^+ currents were evoked with incremental 10 mV voltage steps to +80 mV from a holding potential of −80 mV. To determine current density values, steady-state current amplitudes were measured 180 msec after the initiation of the +10 mV step and normalized to cell capacitance. For current clamp experiments, the intracellular (electrode) solution contained (in mM): 94 K-gluconate, 30 KCl, 10 phosphocreatine di-tris salt, 10 HEPES, 0.2 EGTA, 4 ATP, 0.3 GTP; pH adjusted to 7.3 with concentrated KOH. […] By repeatedly adjusting the scaling factor k, an automated binary search algorithm determined threshold synaptic conductance (thresh-gsyn), the conductance required to reach firing threshold (Kullmann et al., J Neurophysiol 91, 542-54, 2004).
It was next evaluated whether C1a441-522 was sufficient to protect neurons against oxidative injury. […]

B1: C1a441-522: distal segment of C1a, residues 441-522 of rat Kv2.1 (protein, UniProt P15387 441-522, looked up, fragment)
chain: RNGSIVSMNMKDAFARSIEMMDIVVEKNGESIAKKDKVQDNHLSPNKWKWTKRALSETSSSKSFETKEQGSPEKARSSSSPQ
- overall effect of expression on neurons: relatively innocuous to neurons
- firing frequency as a function of depolarizing current versus vector-expressing neurons (1 sec depolarizing current steps, 15-120 pA): small but significant increase
- input resistance versus vector-expressing neurons (current clamp): no differences
- resting membrane potential versus vector-expressing neurons (current clamp): no differences
- threshold synaptic conductance versus vector-expressing neurons (dynamic clamp): no differences

Reference: patent US9932382B2, “Kv2.1 channel-derived peptides and methods of use” (University of Pittsburgh—Of the Commonwealth System of …, priority 2014, dated 2018)
